Source: US20260234233A1 (PETMEDIX, published 2026)

T1: Human BDNF (human, UniProt P23560 129-247)
T1 construct: mature; also called hBDNF
T1 sequence (looked up): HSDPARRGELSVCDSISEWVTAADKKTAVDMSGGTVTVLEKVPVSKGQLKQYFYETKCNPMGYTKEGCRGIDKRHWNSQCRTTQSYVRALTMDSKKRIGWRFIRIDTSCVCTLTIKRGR

T2: Human NT-3 (human, UniProt P20783 139-257)
T2 construct: mature; also called hNT-3
T2 sequence (looked up): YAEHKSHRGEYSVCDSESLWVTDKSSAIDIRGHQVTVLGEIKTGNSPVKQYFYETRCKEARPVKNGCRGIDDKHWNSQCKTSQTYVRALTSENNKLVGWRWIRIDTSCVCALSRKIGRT

T3: Human NT-4 (human, UniProt P34130 81-210)
T3 construct: mature; also called hNT-4
T3 sequence (looked up): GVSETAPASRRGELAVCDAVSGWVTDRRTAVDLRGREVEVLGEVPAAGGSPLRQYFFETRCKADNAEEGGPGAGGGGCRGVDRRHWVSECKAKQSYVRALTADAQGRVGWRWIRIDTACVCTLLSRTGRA

B1: PetML119 (Canine p75NTR ECD-canine IgGB wt Fc protein fusion) (Fc fusion)
chain: KEACPTGLYTHSGECCKACNLGEGVAQPCGANQTVCEPCLDSVTFSDVVSATEPCKPCTECVGLQSMSAPCVEADDAVCRCAYGYYQDETTGRCEACRVCEAGSGLVFSCQDRQNTVCEECPDGTYSDEANHVDPCLPCTVCEDTERQLRECTRWADAECEEIPGGGGRENGRVPRPPDCPKCPAPEMLGGPSVFIFPPKPKDTLLIARTPEVTCVVVDLDPEDPEVQISWFVDGKQMQTAKTQPREEQFNGTYRVVSVLPIGHQDWLKGKQFTCKVNNKALPSPIERTISKARGQAHQPSVYVLPPSREELSKNTVSLTCLIKDFFPPDIDVEWQSNGQQEPESKYRTTPPQLDEDGSYFLYSKLSVDKSRWQRGDTFICAVMHEALHNHYTQKSLSHSPGK
notes: Made in CHO cells; also called PetML119wt; p75NTR-Fc
B2: Bedinvetmab (antibody, V domains shown)
VH: EVQLVESGGDLVKPGGSLRLSCVASGFTFSSHGMHWVRQSPGKGLQWVAVINSGGSSTYYTDAVKGRFTISRDNAKNTVYLQMNSLRAEDTAMYYCAKESVGGWEQLVGPHFDYWGQGTLVIVSS
VL: QSVLTQPTSVSGSLGQRVTISCSGSTNNIGILGASWYQLFPGKAPKLLVYGNGNRPSGVPDRFSGADSGDSVTLTITGLQAEDEADYYCQSFDTTLGAHVFGGGTHLTVL
B3: PetML119-S109Y (Canine p75NTR ECD S109Y-canine IgGB wt Fc) (Fc fusion)
chain: KEACPTGLYTHSGECCKACNLGEGVAQPCGANQTVCEPCLDSVTFSDVVSATEPCKPCTECVGLQSMSAPCVEADDAVCRCAYGYYQDETTGRCEACRVCEAGSGLVFYCQDRQNTVCEECPDGTYSDEANHVDPCLPCTVCEDTERQLRECTRWADAECEEIPGRGGGGRENGRVPRPPDCPKCPAPEMLGGPSVFIFPPKPKDTLLIARTPEVTCVVVDLDPEDPEVQISWFVDGKQMQTAKTQPREEQFNGTYRVVSVLPIGHQDWLKGKQFTCKVNNKALPSPIERTISKARGQAHQPSVYVLPPSREELSKNTVSLTCLIKDFFPPDIDVEWQSNGQQEPESKYRTTPPQLDEDGSYFLYSKLSVDKSRWQRGDTFICAVMHEALHNHYTQKSLSHSPGK
notes: Signal peptide left out as for PetML119; If the listing carries them, the end of the range is 426
B4: PetML119-E75T (Canine p75NTR ECD E75T-canine IgGB wt Fc) (Fc fusion)
chain: KEACPTGLYTHSGECCKACNLGEGVAQPCGANQTVCEPCLDSVTFSDVVSATEPCKPCTECVGLQSMSAPCVEATDAVCRCAYGYYQDETTGRCEACRVCEAGSGLVFSCQDRQNTVCEECPDGTYSDEANHVDPCLPCTVCEDTERQLRECTRWADAECEEIPGRGGGGRENGRVPRPPDCPKCPAPEMLGGPSVFIFPPKPKDTLLIARTPEVTCVVVDLDPEDPEVQISWFVDGKQMQTAKTQPREEQFNGTYRVVSVLPIGHQDWLKGKQFTCKVNNKALPSPIERTISKARGQAHQPSVYVLPPSREELSKNTVSLTCLIKDFFPPDIDVEWQSNGQQEPESKYRTTPPQLDEDGSYFLYSKLSVDKSRWQRGDTFICAVMHEALHNHYTQKSLSHSPGK
notes: The signal peptide (first 19 residues) is left out as for PetML119
B5: PetML119-S109H (Canine p75NTR ECD S109H-canine IgGB wt Fc) (Fc fusion)
chain: KEACPTGLYTHSGECCKACNLGEGVAQPCGANQTVCEPCLDSVTFSDVVSATEPCKPCTECVGLQSMSAPCVEADDAVCRCAYGYYQDETTGRCEACRVCEAGSGLVFHCQDRQNTVCEECPDGTYSDEANHVDPCLPCTVCEDTERQLRECTRWADAECEEIPGRGGGGRENGRVPRPPDCPKCPAPEMLGGPSVFIFPPKPKDTLLIARTPEVTCVVVDLDPEDPEVQISWFVDGKQMQTAKTQPREEQFNGTYRVVSVLPIGHQDWLKGKQFTCKVNNKALPSPIERTISKARGQAHQPSVYVLPPSREELSKNTVSLTCLIKDFFPPDIDVEWQSNGQQEPESKYRTTPPQLDEDGSYFLYSKLSVDKSRWQRGDTFICAVMHEALHNHYTQKSLSHSPGK
B6: PetML119-V133R (Canine p75NTR ECD V133R-canine IgGB wt Fc) (Fc fusion)
chain: KEACPTGLYTHSGECCKACNLGEGVAQPCGANQTVCEPCLDSVTFSDVVSATEPCKPCTECVGLQSMSAPCVEADDAVCRCAYGYYQDETTGRCEACRVCEAGSGLVFSCQDRQNTVCEECPDGTYSDEANHRDPCLPCTVCEDTERQLRECTRWADAECEEIPGRGGGGRENGRVPRPPDCPKCPAPEMLGGPSVFIFPPKPKDTLLIARTPEVTCVVVDLDPEDPEVQISWFVDGKQMQTAKTQPREEQFNGTYRVVSVLPIGHQDWLKGKQFTCKVNNKALPSPIERTISKARGQAHQPSVYVLPPSREELSKNTVSLTCLIKDFFPPDIDVEWQSNGQQEPESKYRTTPPQLDEDGSYFLYSKLSVDKSRWQRGDTFICAVMHEALHNHYTQKSLSHSPGK
notes: Signal peptide left out as for PetML119
B7: PetML119-D134L (Canine p75NTR ECD D134L-canine IgGB wt Fc) (Fc fusion)
chain: KEACPTGLYTHSGECCKACNLGEGVAQPCGANQTVCEPCLDSVTFSDVVSATEPCKPCTECVGLQSMSAPCVEADDAVCRCAYGYYQDETTGRCEACRVCEAGSGLVFSCQDRQNTVCEECPDGTYSDEANHVLPCLPCTVCEDTERQLRECTRWADAECEEIPGRGGGGRENGRVPRPPDCPKCPAPEMLGGPSVFIFPPKPKDTLLIARTPEVTCVVVDLDPEDPEVQISWFVDGKQMQTAKTQPREEQFNGTYRVVSVLPIGHQDWLKGKQFTCKVNNKALPSPIERTISKARGQAHQPSVYVLPPSREELSKNTVSLTCLIKDFFPPDIDVEWQSNGQQEPESKYRTTPPQLDEDGSYFLYSKLSVDKSRWQRGDTFICAVMHEALHNHYTQKSLSHSPGK
notes: Signal peptide left out as for PetML119; also called D134L mutant

How the values were obtained:
[1] = target: T4, Human proNGF (human, UniProt P01138 19-241); test: SPR, Biacore 8K, binder captured on Protein A chip, ligand as analyte
T4 construct: This is the precursor form with the pro-peptide; also called h-proNGF; the pro-peptide
T4 sequence (P01138 19-241): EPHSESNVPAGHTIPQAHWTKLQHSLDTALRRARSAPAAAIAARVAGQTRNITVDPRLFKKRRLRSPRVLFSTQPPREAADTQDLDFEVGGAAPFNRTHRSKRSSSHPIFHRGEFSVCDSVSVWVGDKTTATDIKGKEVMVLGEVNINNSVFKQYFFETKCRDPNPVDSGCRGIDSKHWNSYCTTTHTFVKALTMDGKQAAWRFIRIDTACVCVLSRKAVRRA
Protocol: (§1) Binding affinity of fusion proteins to human and rat NGF was assessed using Biacore 8K (Cytiva). Briefly, Protein A Sensor Chip (Cytiva) was docked into Biacore 8K, equilibrated for 30′ at RT and then Running Buffer (10 mM HEPES pH7.4 150 mM NaCl 3 mM EDTA and 0.005% Tween20) was applied to the SPR chip surface.
(§2) PetML119var was diluted into running buffer at 6 nM concentration. These were immobilised using 90 sec association at 10 uL/min as capturing step, followed by injection of running buffer to remove any unbound product.

[2] = target: T4, Human proNGF; test: as above; remark: listed apart in the source
[3] = target: T1, Human BDNF; test: as above
[4] = target: T2, Human NT-3; test: as above
[5] = target: T3, Human NT-4; test: as above
[6] = target: Human NGF (human) (UniProt P01138); test: cell-based or functional assay
Human NGF (human), sequence (P01138 122-241): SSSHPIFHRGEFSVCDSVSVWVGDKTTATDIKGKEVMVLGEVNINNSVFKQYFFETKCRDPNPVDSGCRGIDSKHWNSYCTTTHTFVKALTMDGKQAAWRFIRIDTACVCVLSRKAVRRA

[7] = target: NGF (species not stated) (Homo sapiens (Human)) (UniProt P01138); test: cell-based or functional assay
[8] = target: T5, Human NGF (human, UniProt P01138 122-241); test: cell-based or functional assay
T5 sequence (P01138 122-241): as above

[9] = target: T5, Human NGF; test: SPR, Biacore 8K, binder captured on Protein A chip, ligand as analyte
Protocol: as §1, §2

Binder	Kd [3]	Kd [4]	Kd [5]	other results
B1	14.4 nM	4.9 nM	7.2 nM	fold higher affinity for proNGF than for mature NGF [1]: 171 ×; Kd [2]: 0.0019 nM
B2	–	–	–	IC50 (nM), inhibition of NGF-dependent TF-1 cell proliferation [6]: 0.89 nM; IC Max, inhibition of NGF-dependent TF-1 cell proliferation [6]: 100; ICMAX (%), inhibition of NGF-dependent TF-1 cell proliferation [6]: 96.8%; Bottom (%), best-fit, PathHunter TrkA activation assay with NGF at 2 nM [7]: 5.35%; IC50 (nM), PathHunter TrkA activation assay with NGF at 2 nM [7]: 4.24 nM; Top (%), best-fit, PathHunter TrkA activation assay with NGF at 2 nM [7]: 123%; TrkA inhibition, PathHunter TrkA activation assay with NGF at 2 nM [7]: 100%; Kd [2]: 0.0018 nM
B3	16.7 nM	8.3 nM	12 nM	IC50 (nM), inhibition of NGF-dependent TF-1 cell proliferation [8]: 0.17 nM; ICMAX (%), inhibition of NGF-dependent TF-1 cell proliferation [8]: 88.5%
B4	15.4 nM	5.1 nM	98.5 nM	fold reduced affinity relative to PetML119wt [9]: 40 ×
B5	16.2 nM	7.9 nM	9.1 nM	IC50 (nM), inhibition of NGF-dependent TF-1 cell proliferation [8]: 2.15 nM; ICMAX (%), inhibition of NGF-dependent TF-1 cell proliferation [8]: 93.5%
B6	42.3 nM	7.2 nM	8.3 nM	–
B7	26.7 nM	8.3 nM	101 nM	fold reduced affinity relative to PetML119wt [9]: 20 ×
